Reference: publication PMC7055384, “The resolution revolution in cryoEM requires high-quality sample preparation: a rapid pipeline to a high-resolution map of yeast fatty acid synthase” (IUCrJ, 2020)

Biological target: the molecule itself
Assay: cryo-EM structure; FAS (0.3 mg/ml, buffer 100 mM sodium phosphate pH 6.5) incubated with 1 mM NADPH and 1 mM malonyl-CoA for 5 min, on hydrophilized graphene-coated Quantifoil grids; D3 symmetry applied; 3.1 Å

B1: yeast fatty acid synthase subunit α (FAS2) (enzyme, S. cerevisiae)
chain: MKPEVEQELAHILLTELLAYQFASPVRWIETQDVFLKDFNTERVVEIGPSPTLAGMAQRTLKNKYESYDAALSLHREILCYSKDAKEIYYTPDPSELAAKEEPAKEEAPAPTPAASAPAPAAAAPAPVAAAAPAAAAAEIADEPVKASLLLHVLVAHKLKKSLDSIPMSKTIKDLVGGKSTVQNEILGDLGKEFGTTPEKPEETPLEELAETFQDTFSGALGKQSSSLLSRLISSKMPGGFTITVARKYLQTRWGLPSGRQDGVLLVALSNEPAARLGSEADAKAFLDSMAQKYASIVGVDLSSAASASGAAGAGAAAGAAMIDAGALEEITKDHKVLARQQLQVLARYLKMDLDNGERKFLKEKDTVAELQAQLDYLNAELGEFFVNGVATSFSRKKARTFDSSWNWAKQSLLSLYFEIIHGVLKNVDREVVSEAINIMNRSNDALIKFMEYHISNTDETKGENYQLVKTLGEQLIENCKQVLDVDPVYKDVAKPTGPKTAIDKNGNITYSEEPREKVRKLSQYVQEMALGGPITKESQPTIEEDLTRVYKAISAQADKQDISSSTRVEFEKLYSDLMKFLESSKEIDPSQTTQLAGMDVEDALDKDSTKEVASLPNKSTISKTVSSTIPRETIPFLHLRKKTPAGDWKYDRQLSSLFLDGLEKAAFNGVTFKDKYVLITGAGKGSIGAEVLQGLLQGGAKVVVTTSRFSKQVTDYYQSIYAKYGAKGSTLIVVPFNQGSKQDVEALIEFIYDTEKNGGLGWDLDAIIPFAAIPEQGIELEHIDSKSEFAHRIMLTNILRMMGCVKKQKSARGIETRPAQVILPMSPNHGTFGGDGMYSESKLSLETLFNRWHSESWANQLTVCGAIIGWTRGTGLMSANNIIAEGIEKMGVRTFSQKEMAFNLLGLLTPEVVELCQKSPVMADLNGGLQFVPELKEFTAKLRKELVETSEVRKAVSIETALEHKVVNGNSADAAYAQVEIQPRANIQLDFPELKPYKQVKQIAPAELEGLLDLERVIVVTGFAEVGPWGSARTRWEMEAFGEFSLEGCVEMAWIMGFISYHNGNLKGRPYTGWVDSKTKEPVDDKDVKAKYETSILEHSGIRLIEPELFNGYNPEKKEMIQEVIVEEDLEPFEASKETAEQFKHQHGDKVDIFEIPETGEYSVKLLKGATLYIPKALRFDRLVAGQIPTGWNAKTYGISDDIISQVDPITLFVLVSVVEAFIASGITDPYEMYKYVHVSEVGNCSGSGMGGVSALRGMFKDRFKDEPVQNDILQESFINTMSAWVNMLLISSSGPIKTPVGACATSVESVDIGVETILSGKARICIVGGYDDFQEEGSFEFGNMKATSNTLEEFEHGRTPAEMSRPATTTRNGFMEAQGAGIQIIMQADLALKMGVPIYGIVAMAATATDKIGRSVPAPGKGILTTAREHHSSVKYASPNLNMKYRKRQLVTREAQIKDWVENELEALKLEAEEIPSEDQNEFLLERTREIHNEAESQLRAAQQQWGNDFYKRDPRIAPLRGALATYGLTIDDLGVASFHGTSTKANDKNESATINEMMKHLGRSEGNPVIGVFQKFLTGHPKGAAGAWMMNGALQILNSGIIPGNRNADNVDKILEQFEYVLYPSKTLKTDGVRAVSITSFGFGQKGGQAIVVHPDYLYGAITEDRYNEYVAKVSAREKSAYKFFHNGMIYNKLFVSKEHAPYTDELEEDVYLDPLARVSKDKKSGSLTFNSKNIQSKDSYINANTIETAKMIENMTKEKVSNGGVGVDVELITSINVENDTFIERNFTPQEIEYCSAQPSVQSSFAGTWSAKEAVFKSLGVKSLGGGAALKDIEIVRVNKNAPAVELHGNAKKAAEEAGVTDVKVSISHDDLQAVAVAVSTKK
modifications: additional density at Ser1440 suggesting phosphorylation
notes: fatty acid synthase subunit α, S. cerevisiae, encoded by FAS2 on a pRS shuttle vector; holds the PPT domain at its C-terminus; this follows from DM4 holding the PPT domain, which it places in subunit α
B1: binds.
